Source: paper PMC5388414 (Nucleic Acids Research, 2016)
Like-named read-outs stand apart in the source and are kept apart here. Values belong to the molecule of their own block, whether it stands above or below them.

Tests used:
[1] = biological target: Prp43 (Saccharomyces cerevisiae, UniProt P53131, F357A); assay: ITC; assay type: binding
[2] = biological target: T1, Prp43 (Saccharomyces cerevisiae, UniProt P53131); assay: ITC; assay type: binding
[3] = biological target: T1, Prp43; assay: ITC; assay type: binding; remark: listed apart in the source
[4] = biological target: T2, Prp43 F357A (UniProt P53131 1-767, F357A); assay: filter binding
[5] = biological target: T3, Prp43 (UniProt P53131 1-767); assay: filter binding
[6] = biological target: T4, Prp43 R159A (UniProt P53131 1-767, R159A); assay: filter binding
[7] = biological target: T4, Prp43 R159A; assay: filter binding; remark: listed apart in the source
[8] = biological target: T2, Prp43 F357A; assay: filter binding; remark: listed apart in the source
[9] = biological target: T4, Prp43 R159A; assay: filter binding; remark: listed apart in the source
[10] = biological target: T2, Prp43 F357A; assay: filter binding; remark: listed apart in the source
[11] = biological target: T3, Prp43; assay: filter binding; remark: listed apart in the source
[12] = biological target: T4, Prp43 R159A; assay: filter binding; remark: listed apart in the source

Kd [1]: > 45000 nM
Kd [2]: 1450 nM
Molecule: Nc1ncnc2c1ncn2[C@@H]1O[C@H](COP(=O)(O)OP(=O)(O)O)[C@@H](O)[C@H]1O [ADP]

Kd [3]: > 25000 nM
Molecule: Nc1ccn([C@@H]2O[C@H](COP(=O)(O)OP(=O)(O)O)[C@@H](O)[C@H]2O)c(=O)n1 [CDP]

B1: 21-mer ssRNA (ssRNA)
RNA: GACGGGCUGUUGGUGAUGGAC
Kd [4]: 14 ± 1 nM
Kd [5]: 42 ± 17 nM
Kd [6]: 20 ± 4 nM
Kd [7]: 18 ± 2 nM
Kd [8]: 43 ± 3 nM
Kd [9]: 8 ± 1 nM
Kd [10]: 6 ± 1 nM
Kd [11]: 8 ± 3 nM
Kd [12]: 3 ± 0.8 nM
